T1: human CD45 protein, wild-type (WT) construct expressed on HEK-293T cells (human, UniProt P08575 26-1306)
T1 construct: also called target protein (WT); PTPRC
T1 sequence: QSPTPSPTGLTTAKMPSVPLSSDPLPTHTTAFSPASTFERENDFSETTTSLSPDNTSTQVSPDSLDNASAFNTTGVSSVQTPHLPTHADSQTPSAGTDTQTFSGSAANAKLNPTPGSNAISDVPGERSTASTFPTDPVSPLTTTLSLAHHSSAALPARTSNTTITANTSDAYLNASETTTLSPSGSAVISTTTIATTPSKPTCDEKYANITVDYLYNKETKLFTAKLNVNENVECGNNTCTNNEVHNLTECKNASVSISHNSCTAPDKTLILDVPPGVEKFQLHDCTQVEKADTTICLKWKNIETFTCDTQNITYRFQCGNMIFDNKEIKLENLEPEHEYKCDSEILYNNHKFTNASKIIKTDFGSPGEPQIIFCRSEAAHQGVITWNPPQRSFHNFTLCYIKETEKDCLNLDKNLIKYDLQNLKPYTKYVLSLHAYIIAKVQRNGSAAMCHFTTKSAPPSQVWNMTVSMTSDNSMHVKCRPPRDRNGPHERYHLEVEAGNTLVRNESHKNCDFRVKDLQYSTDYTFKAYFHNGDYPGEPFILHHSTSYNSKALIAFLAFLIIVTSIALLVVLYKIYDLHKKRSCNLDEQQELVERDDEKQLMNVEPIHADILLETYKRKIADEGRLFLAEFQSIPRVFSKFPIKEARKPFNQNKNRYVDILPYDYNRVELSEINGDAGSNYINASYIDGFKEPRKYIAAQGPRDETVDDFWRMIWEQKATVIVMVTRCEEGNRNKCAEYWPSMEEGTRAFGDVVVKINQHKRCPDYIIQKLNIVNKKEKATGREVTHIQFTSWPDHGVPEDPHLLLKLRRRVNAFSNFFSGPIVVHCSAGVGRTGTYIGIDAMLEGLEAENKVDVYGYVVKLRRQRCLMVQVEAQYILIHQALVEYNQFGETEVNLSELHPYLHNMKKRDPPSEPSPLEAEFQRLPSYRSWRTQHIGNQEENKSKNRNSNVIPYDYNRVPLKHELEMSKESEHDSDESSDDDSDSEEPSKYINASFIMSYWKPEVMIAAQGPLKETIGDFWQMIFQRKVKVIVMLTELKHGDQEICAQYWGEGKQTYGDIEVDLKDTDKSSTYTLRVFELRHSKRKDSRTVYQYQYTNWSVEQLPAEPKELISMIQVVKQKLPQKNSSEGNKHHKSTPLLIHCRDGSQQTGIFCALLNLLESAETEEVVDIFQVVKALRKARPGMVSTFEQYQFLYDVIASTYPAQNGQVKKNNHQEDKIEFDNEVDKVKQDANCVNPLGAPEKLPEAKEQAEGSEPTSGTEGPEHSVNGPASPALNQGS


Columns and labels:
[1] = target: T1, human CD45 protein, wild-type (WT) …; assay: high-throughput flow cytometry on HEK-293T cells expressing WT CD45 against vector alone, 5.00 µg/ml
Protocol: (§1) Cells were transfected with a wild-type (WT) construct of the target protein or with vector alone in 384-well format, followed by detection of cellular expression via high-throughput flow cytometry. Serial dilutions of each MAb were tested for immunoreactivity against cells expressing target protein (WT) or vector alone.

[2] = target: T1, human CD45 protein, wild-type (WT) …; assay: high-throughput flow cytometry on HEK-293T cells expressing WT CD45 against vector alone, 5.0 ug/ml
Protocol: as §1

Row | Binder | Signal:Background [1] | Signal:Background [2]
1 | murine anti-CD45 monoclonal antibody BC8 (antibody, mouse IgG1, kappa, V domains shown, position 141 is found to be a mixture of ASP and ASN in the purified protein (deamidation of ASN-141), Purified from hybridoma ATCC HB-10507; also called BC8 MAb; anti-CD45 immunoglobulin BC8) VH: EVKLLESGGGLVQPGGSLKLSCAASGFDFSRYWMSWVRQAPGKGLEWIGEINPTSSTINFTPSLKDKVFISRDNAKNTLYLQMSKVRSEDTALYYCARGNYYRYGDAMDYWGQGTSVTVSS VL: DIALTQSPASLAVSLGQRATISCRASKSVSTSGYSYLHWYQQKPGQPPKLLIYLASNLESGVPARFSGSGSGTDFTLNIHPVEEEDAATYYCQHSRELPFTFGSGTKLEIKR | 9 signal:background ratio | –
2 | BC8 Fab (Fab, V domains shown, It was detected with an anti-mouse F(ab')2 secondary antibody; also called Test Fab) VH: EVKLLESGGGLVQPGGSLKLSCAASGFDFSRYWMSWVRQAPGKGLEWIGEINPTSSTINFTPSLKDKVFISRDNAKNTLYLQMSKVRSEDTALYYCARGNYYRYGDAMDYWGQGTSVTVSS VL: DIALTQSPASLAVSLGQRATISCRASKSVSTSGYSYLHWYQQKPGQPPKLLIYLASNLESGVPARFSGSGSGTDFTLNIHPVEEEDAATYYCQHSRELPFTFGSGTKLEIKR | – | 6 signal:background ratio

— patent US20200338219A1 (ACTINIUM PHARMACEUTICALS, published 2020)
